# From patent publication WO2014084859A1
# T1: peptide 44 (linear 15-mer of the ECD1-3 library) (human)
# T1 sequence (peptide): VQISRYKDYREPPWS
# T2: peptide 46 (linear 15-mer of the ECD1-3 library) (human)
# T2 sequence (peptide): KDYREPPWSENKYDI
# T3: peptide 45 (linear 15-mer of the ECD1-3 library) (human)
# T3 sequence (peptide): SRYKDYREPPWSENK
# B1: 12E11 (antibody, V domains shown)
# VH: QVQLKESGPGLVQPSQTLTLTCTVSGFSLSNYDMHWVRQSPGKGLDWMGVIWGNGKTQYNSGLTSRLSISRDTSKSQVFLKMNSLQTEDTAIYFCTRSGYYYDGSYYSLFDYWGQGVMVTVSS
# VL: DVVLTQTPPTLSATIGQSVSISCRSSQSLLHSNGNTYLNWLLQRPGQPPQLLIYLVSRLESGVPNRFSGSGSGTDFTLKISGVEAEDLGVYYCVQSTHAPAFGGGTKLELK
# B2: Peptide #2 (peptide)
# peptide: DHEECVKRKQRYEVDYNLE
# How the values were obtained:
# [1] = target: TMEM16A-GFP fusion protein on HEK293 stable cells (UniProt Q5XXA6); assay: flow cytometry on HEK293-TMEM16A cells
# UniProt Q5XXA6, sequence (Q5XXA6 whole entry, the tested form may be a part): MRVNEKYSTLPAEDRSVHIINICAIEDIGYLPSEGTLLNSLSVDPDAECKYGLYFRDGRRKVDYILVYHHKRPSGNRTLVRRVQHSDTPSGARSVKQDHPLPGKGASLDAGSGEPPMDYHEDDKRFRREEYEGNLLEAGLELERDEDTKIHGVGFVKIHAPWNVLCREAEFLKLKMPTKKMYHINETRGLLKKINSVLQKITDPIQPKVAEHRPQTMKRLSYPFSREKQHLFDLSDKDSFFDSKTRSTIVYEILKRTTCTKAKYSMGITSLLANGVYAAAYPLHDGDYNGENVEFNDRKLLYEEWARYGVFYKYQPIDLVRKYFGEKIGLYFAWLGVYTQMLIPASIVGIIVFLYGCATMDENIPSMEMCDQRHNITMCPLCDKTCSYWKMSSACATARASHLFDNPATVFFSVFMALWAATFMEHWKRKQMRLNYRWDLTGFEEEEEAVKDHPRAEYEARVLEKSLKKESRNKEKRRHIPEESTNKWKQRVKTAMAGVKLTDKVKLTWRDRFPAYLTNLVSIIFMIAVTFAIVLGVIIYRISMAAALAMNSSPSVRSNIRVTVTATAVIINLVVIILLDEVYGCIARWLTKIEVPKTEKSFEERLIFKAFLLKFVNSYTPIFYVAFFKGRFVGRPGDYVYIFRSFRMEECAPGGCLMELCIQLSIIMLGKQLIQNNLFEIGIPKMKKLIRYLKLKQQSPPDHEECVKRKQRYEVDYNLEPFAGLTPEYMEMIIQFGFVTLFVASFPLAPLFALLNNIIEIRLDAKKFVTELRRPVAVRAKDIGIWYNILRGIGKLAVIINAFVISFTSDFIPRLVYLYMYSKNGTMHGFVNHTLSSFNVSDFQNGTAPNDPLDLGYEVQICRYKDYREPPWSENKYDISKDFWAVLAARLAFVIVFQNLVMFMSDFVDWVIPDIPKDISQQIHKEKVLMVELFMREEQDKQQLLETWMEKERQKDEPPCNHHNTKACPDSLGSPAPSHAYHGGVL
# [2] = target: peptide 45 (cyclic, flanked by cysteines, second library) (human); assay: peptide microarray (RepliTope), cyclic peptide
# [3] = target: peptide 46 (cyclic, flanked by cysteines, second library) (human); assay: peptide microarray (RepliTope), cyclic peptide
# [4] = target: peptide 44 (cyclic, flanked by cysteines, second library) (human); assay: peptide microarray (RepliTope), cyclic peptide
# [5] = target: T1, peptide 44 (linear 15-mer of the ECD1-3 library) (human); assay: peptide microarray (RepliTope), linear 15-mer
# [6] = target: T2, peptide 46 (linear 15-mer of the ECD1-3 library) (human); assay: peptide microarray (RepliTope), linear 15-mer
# [7] = target: T3, peptide 45 (linear 15-mer of the ECD1-3 library) (human); assay: peptide microarray (RepliTope), linear 15-mer
# SP31 ab64085 = assay: peptide blocking of SP31 ab64085, western blot of TMEM16A
molecule,measurement,setting,value
isotype control antibody (flow cytometry with 12E11),median fluorescence intensity,[1],93
B1,signal over background signal (after subtraction of the signals of the unrelated antibody),[2],> 3 times
same,"signal (AU, arbitrary unit)",[3],15000 AU
same,signal over background signal (after subtraction of the signals of the unrelated antibody),[3],> 3 times
same,signal over background signal (after subtraction of the signals of the unrelated antibody),[4],> 3 times
same,signal over background signal (after subtraction of the signals of the unrelated antibody),[5],3 times
same,"signal (AU, arbitrary unit)",[6],15000 AU
same,signal over background signal (after subtraction of the signals of the unrelated antibody),[6],> 3 times
same,signal over background signal (after subtraction of the signals of the unrelated antibody),[7],> 3 times
B2,peptide concentration at which pre-incubation blocked the western blot signal,SP31 ab64085,0.01 µg/mL
